Measurements taken from US12514920B1, “Respiratory syncytial virus mRNA vaccine, and preparation method therefor and use thereof” (Hangzhou Tianlong Pharmaceutical Co., Ltd., priority 2024, dated 2026).
Positions count from the first letter of the chain named.

B1: YK-RSV-022 (protein)
chain: QNITEEFYQSTCSAVSKGYLGALRTGWYTSVITIELSNIKENKCNGTDAKVKLIKQELDKYKNAVTDLQLLMQSTPACGSGSACASGVAVSKVLHLEGEVNKIKSALLSTNKAVVSLSGCGVSVLTFKVLDLKNYIDKQLLPIVNKQSCSIPNIETVIEFQQKNNRLLEITREFSVNAGVTTPVSTYMLTNSELLSLINDMPITNDQKKLMSNNVQIVRQQSYSIMSIIKEEVLAYVVQLPLYGVIDTPCWKLHTSPLCTTNTKEGSNICLTRTDRGWYCDNAGSVSFFPQAETCKVQSNRVFCDTMNSRTLPSEVNLCNVDIFNPKYDCKIMTSKTDVSSSVITSLGAIVSCYGKTKCTASNKCRGIIKTFSNGCDYVSNKGVDTVSVGNTLYYVNKQEGQSLYVKGEPIINFYDPLVFPSSEFDASISQVNEKINQSLAFIRKSDELLHNVNAGKSTTNIMITTIIIVIIVILLSLIAVGLLLY
B2: YK-RSV-005 (protein)
chain: QNITEEFYQSTCSAVSKGYLGALRTGWYTSVITIELSNIKENKCNGTDAKVKLIKQELDKYKNAVTDLQLLMQSTPATGSGSAICSGVAVCKVLHLEGEVNKIKSALLSTNKAVVSLSNGVSVLTIKVLDLKNYIDKQLLPIVNKQSCSISPIETVIEFQQKNNRLLEITREFSVNAGVTTPVSTYMLTNSELLSLINDMPITNDQKKLMSNNVQIVRQQSYSIMCIIKEEVLAYVVQLPLYGVIDTPCWKLHTSPLCTTNTKEGSNICLTRTDRGWYCDNAGSVSFFPQAETCKVQSNRVFCDTMNSRTLPSEVNLCNVDIFNPKYDCKIMTSKTDVSSSVITSLGAIVSCYGKTKCTASNKNRGIIKTFSNGCDYVSNKGVDTVSVGNTLYCVNKQEGQSLYVKGEPIINFYDPLVFPSSEFDASISQVNEKINQSLAFIRKSDELLHNVNAGKSTTNIMITTIIIVIIVILLSLIAVGLLLY
B3: YK-RSV-018 (protein)
chain: B2 chain with Q9C, C91S, I126F, S151P, P152N, T155I, C226S, G407C
B4: YK-RSV-017 (protein)
chain: B2 chain with S30C, T33L, C91S, L124C, I126F, S151P, P152N, C226S
B5: YK-RSV-014 (protein)
chain: B2 chain with Q9C, C91S, S151P, P152N, C226S, G407C
B6: YK-RSV-031 (protein)
chain: QNITEECYQSTCSAVSKGYLGALRTGWYTSVITIELSNIKENKCNGTDAKVKLIKQELDKYKNAVTDLQLLMQSTPATGSGSAIASGVAVSKVLHLEGEVNKIKSALLSTNKAVVSLSNGVSVLTFKVLDLKNYIDKQLLPILNKQSCSIPNIETVIEFQQKNNRLLEITREFSVNAGVTTPVSTYMLTNSELLSLINDMPITNDQKKLMSNNVQIVRQQSYSIMSIIKEEVLAYVVQLPLYGVIDTPCWKLHTSPLCTTNTKEGSNICLTRTDRGWYCDNAGSVSFFPQAETCKVQSNRVFCDTMNSRTLPSEVNLCNVDIFNPKYDCKIMTSKTDVSSSVITSLGAIVSCYGKTKCTASNKNRGIIKTFSNGCDYVSNKGVDTVSVGNTLYYVNKQEGQSLCVKGEPIINFYDPLVFPSDEFDASISQVNEKINQSLAFIRKSDELLHNVNAGKSTTNIMITTIIIVIIVILLSLIAVGLLLY
B7: YK-RSV-056 (protein)
chain: B6 chain with C7F, A83C, S223C, C404Y
B8: YK-RSV-038 (protein)
chain: B6 chain with C7F, S30C, S122C, C404Y

Legend:
RSV F antibody (11A9) = assay: Binding of epitope II of RSV F antigen mutants by flow cytometry; settings: for RSV F antibody (11A9) Epitope II (%): binding rate, 293T cells 16 h after mRNA-LNP transfection
Description: (§1) To investigate whether the RSV F antigen mutants have pre-fusion epitopes, an RSV pre-F antibody (3C12) (specifically binding to the RSV pre-F epitope […]) and an RSV F antibody (11A9) (binding to pre-F and post-F epitopes II) were detected by flow cytometry in this example, and RSV F protein mutants in the pre-F conformation were expected to bind to the antibodies tested.
(§2) • 293T cells (purchased from ATCC cell bank); RSV pre-F antibody (3C12), epitope […] (Novoprotein, Cat. No.: DA101); RSV F antibody (11A9), epitope II (Novoprotein, Cat. No.: DA091); • experimental groups: mRNA vaccines corresponding to the expressed antigens in Example 3;
(§3) • (1) Cell transfection: 293T cells were seeded at 1.3×10^5 cells/well in a 24-well plate. The next day, mRNA-LNP samples (containing 300 ng of mRNA) were added directly to the cells, and the mixture was uniformly mixed. • (2) Cell collection: The cells were taken out of the incubator after 16 h of transfection, the medium was pipetted off, 500 μL of 0.1% BSA solution was pipetted to wash the medium remaining in the well plate, taking care not to resuspend the cells, and the 0.1% BSA solution was pipetted off. 500 μL of 0.1% BSA solution was added to each well, and the cells were pipetted and transferred to a 1.5 mL centrifuge tube. • (3) Centrifugation: The cells were harvested by centrifugation at 400 g for 5 min at 4° C. in the dark, and the supernatant was discarded. • (4) Straining: 50.6 μL of RSV fluorescent antibody diluent was added to each of the control sample and the test samples to resuspend the cells, and the samples were incubated at 4° C. for 2 h in the dark. • (5) Cleaning: After the incubation was completed, 500 μL of 0.1% BSA solution was added to each tube, the cells were harvested by centrifugation at 400 g for 5 min at 4° C. in the dark, and the supernatant was discarded. This operation was repeated three times. • (6) Resuspension of cells: 200 μL of 0.1% BSA solution was added to each sample, and the cells were carefully pipetted to prepare a cell suspension. • (7) Detection on flow cytometer: The […] of RSV F mutants to antibodies were measured using flow cytometry, with 1×10^4 cells detected in each measurement.
(§4) The RSV pre-F antibody (3C12) used in this example specifically binds to the RSV pre-F epitope Φ, and the RSV F antibody (11A9) binds to the pre-F and post-F epitopes II. Whether the pre-fusion conformations of the RSV F mutants are stable can be further determined by detecting the binding of the epitope Φ and the epitope II on the mutants to corresponding epitopes of antibodies 3C12 and 11A9, respectively, by flow cytometry.

[1] = test system: RSV pre-F antibody (3C12); assay: Binding of epitope Φ of RSV F antigen mutants by flow cytometry; settings: for RSV pre-F antibody (3C12) Epitope Φ (%): binding rate, 293T cells 16 h after mRNA-LNP transfection; for Φ/II (%): ratio of epitope Φ (3C12) to epitope II (11A9) binding rate
Description: as §1, §2, §3, §4

[2] = test system: RSV pre-F antibody (3C12); type: physicochemical; settings: ELISA binding to 3C12; for Stress resistance parameter, Osmotic pressure (mM) 3000: high osmotic pressure 3000 mM; for Stress resistance parameter, Osmotic pressure (mM) 3000 / Stress resistance parameter, Osmotic pressure (mM) 10: room temperature; for Stress resistance parameter, Osmotic pressure (mM) 3000 / Stress resistance parameter, Osmotic pressure (mM) 10 / Stress resistance parameter, pH 3.5 / Stress resistance parameter, pH 10: 60 min; for Stress resistance parameter, Temperature (° C.) 50: incubation at 50° C. for 60 min; for Stress resistance parameter, Osmotic pressure (mM) 10: low osmotic pressure 10 mM; for Stress resistance parameter, pH 3.5: pH 3.5, room temperature; for Stress resistance parameter, pH 10: pH 10, room temperature; for Stress resistance parameter, Temperature (° C.) 4: storage at 4° C. for one week
Description: To investigate the stability of the RSV F antigen mutants under different pH, temperature, osmotic pressure and other conditions, the mutants were subjected to stress tests under different treatment conditions in this example.
• 293T cells (purchased from ATCC cell bank); • Primary antibody: RSV pre-F antibody (3C12), epitope Φ (purchased from Suzhou Novoprotein Scientific Co., Ltd. (hereinafter referred to as Novoprotein), Cat. No.: DA101); • Standard: RSV pre-F trimer protein (Novoprotein, Cat. No.: DRA230); • Secondary antibody: peroxidase AffiniPure goat anti-human IgG (H+L) (purchased from Yeasen Biotechnology (Shanghai) Co., Ltd. (hereinafter referred to as Yeasen), Cat. No.: N/A); • Experimental group: mRNA vaccines after screening in Example 4;
Coating: A 96-well microplate was coated with a working solution and incubated at 2 to 8° C. for 16 to 20 h.
Plate washing: Phosphate buffered saline PBST was added to each well, and the plate was washed 5 times using a plate washer and patted dry on absorbent paper.
Blocking: After a blocking solution was added, the […] were placed on a constant temperature microplate shaker and incubated at 400 rpm for 1.5 h at 37° C.
Plate washing: PBST was added to each well, and the plate was washed 5 times using a plate washer and patted dry on absorbent paper.
Primary antibody incubation: A primary antibody dilution was added to each well, and the plate was sealed with a sealing film, and then incubated at 400 rpm for 1.5 h at 37° C.
Secondary antibody incubation: A secondary antibody dilution was added to each well, and the plate was sealed with a sealing film, and then incubated at 400 rpm for 45 min at 37° C.
Color development: A chromogenic solution was added, and the plate was sealed with a sealing film, and then placed on a constant temperature microplate shaker and incubated at 400 rpm for 25 min at 37° C.
Reaction stopping: After the color development was completed, a stop buffer was added at […] to the microplate to stop the reaction.
Plate reading: Absorbance values (OD values) were read within 5 min using a multimode microplate reader, with dual wavelengths of 450 nm and 630 nm set.
In this example, stability screening of the mutants through different treatment conditions was defined as a stress test, including storage at 4° C. for one week; incubation at 50° C. for 60 min; treatment at room temperature under low osmotic pressure and high osmotic pressure conditions for 60 min; treatment at room temperature under acid and base conditions for 60 min. The binding of the mutants to the RSV pre-F antibody (3C12) recognizing the epitope Φ was detected by ELISA.

Row | Molecule | RSV F antibody (11A9) Epitope II (%) (RSV F antibody (11A9)) | RSV F antibody (11A9) Epitope II (%) binding rate (RSV F antibody (11A9); epitope II, antibody 11A9) [%] | RSV pre-F antibody (3C12) Epitope Φ (%) ([1]; flow cytometry) | RSV pre-F antibody (3C12) Epitope Φ (%) binding rate ([1]; flow cytometry, epitope Φ, antibody 3C12) [%] | Φ/II (%) [1] [%] | Stress resistance parameter, Osmotic pressure (mM) 3000 [2] | Stress resistance parameter, Temperature (° C.) 50 [2] | Stress resistance parameter, Osmotic pressure (mM) 10 [2] | Stress resistance parameter, pH 3.5 [2] | Stress resistance parameter, pH 10 [2] | Stress resistance parameter, Temperature (° C.) 4 [2]
1 | RSVA2 (138251)-wt: wild sequence of RSV A2 F protein, full length (1 to 574 aa) [reference compound] | 23.1 | 23.1 | 1.0 | 1.0 | 4.3 | – | – | – | – | – | –
2 | B1 | 2.1 | – | 0.2 | – | 9.5 | – | – | – | – | – | –
3 | B2 | – | – | – | – | 96.2 | 0.47 ± 0.08 | 0.44 ± 0.06 | 0.57 ± 0.00 | 0.64 ± 0.20 | 0.88 ± 0.14 | 0.55 ± 0.09
4 | B3 | 76.3 | – | 68.4 | – | 89.6 | – | – | – | – | – | –
5 | B4 | – | – | – | – | 96.5 | 0.46 ± 0.06 | 0.60 ± 0.04 | 0.59 ± 0.03 | 0.76 ± 0.11 | 0.93 ± 0.06 | 0.35 ± 0.07
6 | B5 | 0.1 | – | 0.0 | – | 0.0 | – | – | – | – | – | –
7 | B6 | 83.4 | – | 75.5 | – | 90.5 | – | – | – | – | – | –
8 | B7 | – | – | – | – | 97.4 | 0.44 ± 0.08 | 0.91 ± 0.09 | 0.82 ± 0.07 | 0.64 ± 0.12 | 0.72 ± 0.14 | 0.69 ± 0.10
9 | B8 | – | – | – | – | 94.8 | 0.55 ± 0.13 | 0.70 ± 0.10 | 0.74 ± 0.08 | 0.88 ± 0.17 | 0.82 ± 0.26 | 0.32 ± 0.08
